Values belong to the binder of their own block, whether it stands above or below them. No end group written: not given here.
Columns and labels:
[1] = target: T1, GST-GRIP Y2177A (Golgin245 GRIP Y2177A in pGEB) (UniProt Q13439 2168-2215, Y2177A); test: pull-down; imaging beads-retained prey (IBRP) assay: GST-bait on glutathione beads (16 µg/µl), HEK293 lysate with GFP-prey, 100 µM GMPPNP; 30 min at 4°C, washes with 300 mM NaCl, bead fluorescence imaged; GFP lysate as control; conditions: one partner purified
T1 construct: GRIP domain of Golgin245 with Y2177A; insert moved from the pEGFP-C2 construct by EcoRI/BamHI into pGEB; pGEB is a modified pGEX-KG vector; also called Y2177A mutant
T1 chain (looked up): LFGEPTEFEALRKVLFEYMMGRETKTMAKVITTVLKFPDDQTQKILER

[2] = target: T2, GST-Arl1 (UniProt P61212 1-181); test: pull-down; IBRP assay: GST-Arl1 on glutathione beads (13 µg/µl) loaded with GMPPNP, HEK293 lysate with GFP-prey; bead fluorescence imaged; conditions: one partner purified
T2 construct: Arl1; also called Arl1-GMPPNP; source: loaded with GMPPNP or GDP on the beads
T2 sequence (looked up): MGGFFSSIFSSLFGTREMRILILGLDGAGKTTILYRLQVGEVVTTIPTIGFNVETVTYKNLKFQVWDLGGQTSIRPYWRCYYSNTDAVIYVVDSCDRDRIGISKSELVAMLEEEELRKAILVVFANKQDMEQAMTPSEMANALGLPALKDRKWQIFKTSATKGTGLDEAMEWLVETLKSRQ

fold reduction of the interaction (IBRP affinity) against wild type GST-GRIP [1]: > 14 fold
B1: Arl1-GFP (wild type rat Arl1 in pEGFP-N1) (natural protein, UniProt P61212 1-181, looked up)
chain: MGGFFSSIFSSLFGTREMRILILGLDGAGKTTILYRLQVGEVVTTIPTIGFNVETVTYKNLKFQVWDLGGQTSIRPYWRCYYSNTDAVIYVVDSCDRDRIGISKSELVAMLEEEELRKAILVVFANKQDMEQAMTPSEMANALGLPALKDRKWQIFKTSATKGTGLDEAMEWLVETLKSRQ
notes: Arl1, ARF family small GTPase, rat, wild type; source: HEK293, transfected, in lysate

relative IBRP affinity with GMPPNP, fold of that with GDP [2]: 3 fold
B2: GFP-GRIP (Golgin245 GRIP domain wild type in pEGFP-C2) (domain or fragment, UniProt Q13439 2168-2215, looked up)
chain: {GFP}-LFGEPTEFEYLRKVLFEYMMGRETKTMAKVITTVLKFPDDQTQKILER
notes: GRIP domain of Golgin245; source: HEK293, transfected, in lysate

fold reduction of relative IBRP affinity against wild type GRIP domain [2]: ~80 fold
B3: GFP-GRIP (Y2177A) (Golgin245 GRIP domain Y2177A mutant in pEGFP-C2) (domain or fragment, UniProt Q13439 2168-2215, looked up)
chain: {GFP}-LFGEPTEFEALRKVLFEYMMGRETKTMAKVITTVLKFPDDQTQKILER
notes: GRIP domain of Golgin245 with Y2177A; source: HEK293, transfected, in lysate

From article PMC3612083, “Imaging Beads-Retained Prey Assay for Rapid and Quantitative Protein-Protein Interaction” (PLoS ONE, 2013)
